Test results published in PMC3688787.
Square brackets hold non-standard residues; d marks the D form. Ends that are not written are not given here. Hyp = O=C(O)[C@@H]1C[C@@H](O)CN1

Columns and labels:
Assay in all cases: ELISA; ELISA-based binding assay: pVHL variant (10 µg/ml, 100 µl) coated on the plate overnight at 4°C, blocked with 5% BSA; TAMRA-labelled Hyp402-ODD peptide added at increasing concentrations, 1 h at 25°C; high salt buffer (10 mM Tris-HCl pH 8.5, 500 mM NaCl) without Arginine; fluorescence at 580 nm
[1] = target: pVHL F119L mutant, 19 kDa form (human)
[2] = target: pVHL N78S mutant, 19 kDa form (human)
[3] = target: pVHL F136L mutant, 19 kDa form (human)

LDLEALA[Hyp]YIPADDDFQLRS (also: TAMRA (rhodamine) label, end not given here) [Hyp402-ODD target peptide of HIF-1α]
fold lower affinity than the WT [1]: 2.5 fold | fold lower affinity than the WT [2]: 2 fold | fold lower affinity than the WT [3]: 5 fold
